In PMC8191316, “Structural basis for CD97 recognition of the decay-accelerating factor CD55 suggests mechanosensitive activation of adhesion GPCRs” (The Journal of Biological Chemistry, 2021):

B1: CD97 EGF_(1,2,5) fragment, WT, without His-tag (SPR construct with TEV site) [human] / CD55 SCR1–4 domains (35–285), His-tagged [human] (parent)
chain 1: QDSRGCARWCPQNSSCVNATACRCNPGFSSFSEIITTPTETCDDINECATPSKVSCGKFSDCWNTEGSYDCVCSPGYEPVSGAKTFKNESENTCQDVDECSSGQHQCDSSTVCFNTVGSYSCRCRPGWKPRHGIPNNQKDTVCED
chain 2: DCGLPPDVPNAQPALEGRTSFPEDTVITYKCEESFVKIPGEKDSVICLKGSQWSDIEEFCNRSCEVPTRLNSASLKQPYITQNYFPVGTVVEYECRPGYRREPSLSPKLTCLQNLKWSTAVEFCKKKSCPNPGEIRNGQIDVPGGILFGATISFSCNTGYKLFGSTSSFCLISGSSVQWSDPLPECREIYCPAPPQIDNGIIQGERDHYGYRQSVTYACNKGFTMIGEHSIYCTVNNDEGEWSGPPPECRG

Variants of: B1
Experiment: SPR
Details: with CD55 SCR1–4 domains (35–285), His-tagged CD55 immobilized on NTA chip, CD97(V137A) titrated at 0.2, 0.5, 1, 2, 5, 10, 20 µM

| koff | Variant |
| --- | --- |
| 1.63 10^-3 s-1 | chain 1 QDSRGCARWCPQNSSCVNATACRCNPGFSSFSEIITTPTETCDDINECATPSKVSCGKFSDCWNTEGSYDCVCSPGYEPVSGAKTFKNESENTCQDVDECSSGQHQCDSSTVCFNTAGSYSCRCRPGWKPRHGIPNNQKDTVCED [chain 1 V117A] |

Same assay, conditions: with CD55 SCR1–4 domains (35–285), His-tagged CD55 immobilized on NTA chip, CD97(V137A) titrated at 0.2, 0.5, 1, 2, 5, 10, 20 µM, parent: 546

| kon [M⁻¹ s⁻¹] | Variant |
| --- | --- |
| 64 | chain 1 QDSRGCARWCPQNSSCVNATACRCNPGFSSFSEIITTPTETCDDINECATPSKVSCGKFSDCWNTEGSYDCVCSPGYEPVSGAKTFKNESENTCQDVDECSSGQHQCDSSTVCFNTAGSYSCRCRPGWKPRHGIPNNQKDTVCED [chain 1 V117A] |

Same assay, conditions: with CD55 SCR1–4 domains (35–285), His-tagged CD55 immobilized on NTA chip, CD97(D63L) titrated at 0.2, 0.5, 1, 5, 10, 20 µM

| koff | Variant |
| --- | --- |
| 0.968 10^-3 s-1 | chain 1 QDSRGCARWCPQNSSCVNATACRCNPGFSSFSEIITTPTETCLDINECATPSKVSCGKFSDCWNTEGSYDCVCSPGYEPVSGAKTFKNESENTCQDVDECSSGQHQCDSSTVCFNTVGSYSCRCRPGWKPRHGIPNNQKDTVCED [chain 1 D43L] |

Same assay, conditions: with CD55 SCR1–4 domains (35–285), His-tagged CD55 immobilized on NTA chip, CD97(D63L) titrated at 0.2, 0.5, 1, 5, 10, 20 µM, parent: 546

| kon [M⁻¹ s⁻¹] | Variant |
| --- | --- |
| 11.2 | chain 1 QDSRGCARWCPQNSSCVNATACRCNPGFSSFSEIITTPTETCLDINECATPSKVSCGKFSDCWNTEGSYDCVCSPGYEPVSGAKTFKNESENTCQDVDECSSGQHQCDSSTVCFNTVGSYSCRCRPGWKPRHGIPNNQKDTVCED [chain 1 D43L] |

Same assay, conditions: with CD55 SCR1–4 domains (35–285), His-tagged CD55 immobilized on NTA chip, CD97(E86A) titrated at 0.2, 0.5, 1, 2, 5, 10, 20, 30 µM

| koff | Variant |
| --- | --- |
| 1.41 10^-3 s-1 | chain 1 QDSRGCARWCPQNSSCVNATACRCNPGFSSFSEIITTPTETCDDINECATPSKVSCGKFSDCWNTAGSYDCVCSPGYEPVSGAKTFKNESENTCQDVDECSSGQHQCDSSTVCFNTVGSYSCRCRPGWKPRHGIPNNQKDTVCED [chain 1 E66A] |

Same assay, conditions: with CD55 SCR1–4 domains (35–285), His-tagged CD55 immobilized on NTA chip, CD97(E86A) titrated at 0.2, 0.5, 1, 2, 5, 10, 20, 30 µM, parent: 546

| kon [M⁻¹ s⁻¹] | Variant |
| --- | --- |
| 80.1 | chain 1 QDSRGCARWCPQNSSCVNATACRCNPGFSSFSEIITTPTETCDDINECATPSKVSCGKFSDCWNTAGSYDCVCSPGYEPVSGAKTFKNESENTCQDVDECSSGQHQCDSSTVCFNTVGSYSCRCRPGWKPRHGIPNNQKDTVCED [chain 1 E66A] |

Same assay, conditions: with CD55 SCR1–4 domains (35–285), His-tagged CD55 immobilized on NTA chip, CD97(D81A) titrated at 0.2, 0.5, 1, 2, 5, 10, 20 µM

| koff | Variant |
| --- | --- |
| 1.22 10^-3 s-1 | chain 1 QDSRGCARWCPQNSSCVNATACRCNPGFSSFSEIITTPTETCDDINECATPSKVSCGKFSACWNTEGSYDCVCSPGYEPVSGAKTFKNESENTCQDVDECSSGQHQCDSSTVCFNTVGSYSCRCRPGWKPRHGIPNNQKDTVCED [chain 1 D61A] |

Same assay, conditions: with CD55 SCR1–4 domains (35–285), His-tagged CD55 immobilized on NTA chip, CD97(D81A) titrated at 0.2, 0.5, 1, 2, 5, 10, 20 µM, parent: 546

| kon [M⁻¹ s⁻¹] | Variant |
| --- | --- |
| 20.2 | chain 1 QDSRGCARWCPQNSSCVNATACRCNPGFSSFSEIITTPTETCDDINECATPSKVSCGKFSACWNTEGSYDCVCSPGYEPVSGAKTFKNESENTCQDVDECSSGQHQCDSSTVCFNTVGSYSCRCRPGWKPRHGIPNNQKDTVCED [chain 1 D61A] |
